Data reported in the supplement of paper PMC9112550, “Optimization of the antimicrobial peptide Bac7 by deep mutational scanning” (BMC Biology, 2022).

Test system: Escherichia coli TOP10
Assay: shrunken log2 fold change of peptide-encoding DNA abundance (4.5 h post-induction vs induction); higher = less antimicrobial activity (less host growth inhibition)
Conditions: time post-induction: 4.5 h; library: site-saturation at positions 5, 18, 19, 20
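Note: peptides expressed intracellularly from a pBAD plasmid library in pooled LB shake-flask culture, induced with 0.3% L-arabinose, DNA abundance read by NGS, three biological replicates, DESeq2 with apeglm shrinkage.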

| Sequence | shrunken log2 fold change |
| --- | --- |
| RRIRVRPPRLPRPRPRPRLLPRP | 0.0401 |
| RRIRTRPPRLPRPRPRPCQIPRP | 0.0623 |
| RRIRARPPRLPRPRPRPCWWPRP | 0.157 |
| RRIRERPPRLPRPRPRPPPDPRP | 0.505 |
| RRIRMRPPRLPRPRPRPFLFPRP | 0.0343 |
| RRIRTRPPRLPRPRPRPDSYPRP | -0.0896 |
| RRIRHRPPRLPRPRPRPWNAPRP | -0.0678 |
| RRIRIRPPRLPRPRPRPCVRPRP | -0.208 |
| RRIRLRPPRLPRPRPRPHYRPRP | -0.0911 |
| RRIRLRPPRLPRPRPRPSIVPRP | -0.294 |
| RRIRVRPPRLPRPRPRPKTYPRP | 0.325 |
| RRIRPRPPRLPRPRPRPWDRPRP | 0.0969 |
| RRIRCRPPRLPRPRPRPVGDPRP | 0.551 |
| RRIRPRPPRLPRPRPRPQEMPRP | 0.0716 |
| RRIRSRPPRLPRPRPRPLYLPRP | -0.212 |
| RRIRMRPPRLPRPRPRPASWPRP | 0.901 |
| RRIRYRPPRLPRPRPRPRQDPRP | -0.216 |
| RRIRFRPPRLPRPRPRPWSAPRP | -0.429 |
| RRIRSRPPRLPRPRPRPWDTPRP | -0.0299 |
| RRIRGRPPRLPRPRPRPFQLPRP | 0.0144 |
| RRIRRRPPRLPRPRPRPWTCPRP | 0.0743 |
| RRIRVRPPRLPRPRPRPVYLPRP | -0.108 |

| Sequence | shrunken log2 fold change |
| --- | --- |
| RRIRQRPPRLPRPRPRPCGYPRP | -0.0698 |
| RRIRNRPPRLPRPRPRPTLEPRP | 0.041 |
| RRIRARPPRLPRPRPRPKTSPRP | 0.331 |
| RRIRPRPPRLPRPRPRPDEYPRP | -0.015 |
| RRIRVRPPRLPRPRPRPERLPRP | -0.0657 |
| RRIRQRPPRLPRPRPRPCDMPRP | -0.129 |
| RRIRHRPPRLPRPRPRPYVMPRP | 0.0288 |
| RRIRDRPPRLPRPRPRPTPMPRP | 0.234 |
| RRIRLRPPRLPRPRPRPWNPPRP | -0.059 |
| RRIRFRPPRLPRPRPRPYCAPRP | -0.517 |
| RRIRDRPPRLPRPRPRPEAPPRP | 0.412 |
| RRIRWRPPRLPRPRPRPVNYPRP | -0.122 |
| RRIRYRPPRLPRPRPRPPNDPRP | -0.151 |
| RRIRNRPPRLPRPRPRPPDVPRP | -0.14 |
| RRIRVRPPRLPRPRPRPVPEPRP | 0.564 |
| RRIRWRPPRLPRPRPRPVFRPRP | -0.153 |
| RRIRERPPRLPRPRPRPIGNPRP | -0.134 |
| RRIRCRPPRLPRPRPRPCVEPRP | -0.0788 |
| RRIRFRPPRLPRPRPRPCFMPRP | -0.213 |
| RRIRTRPPRLPRPRPRPTWNPRP | -0.0206 |
| RRIRHRPPRLPRPRPRPDEAPRP | -0.0728 |
| RRIRNRPPRLPRPRPRPSQPPRP | -0.0682 |

| Sequence | shrunken log2 fold change |
| --- | --- |
| RRIRNRPPRLPRPRPRPCYIPRP | -0.33 |
| RRIRHRPPRLPRPRPRPNPCPRP | -0.132 |
| RRIRPRPPRLPRPRPRPLCEPRP | 0.0379 |
| RRIRARPPRLPRPRPRPEYNPRP | 0.102 |
| RRIRARPPRLPRPRPRPRAFPRP | 0.398 |
| RRIRKRPPRLPRPRPRPVQYPRP | 0.071 |
| RRIRWRPPRLPRPRPRPFQKPRP | 0.0262 |
| RRIRGRPPRLPRPRPRPRKGPRP | 0.148 |
| RRIRRRPPRLPRPRPRPCMQPRP | 0.23 |
| RRIRSRPPRLPRPRPRPTHCPRP | 0.36 |
| RRIRHRPPRLPRPRPRPNSVPRP | -0.00436 |
| RRIRERPPRLPRPRPRPTTHPRP | -0.294 |
| RRIRARPPRLPRPRPRPMFTPRP | -0.0981 |
| RRIRTRPPRLPRPRPRPYMGPRP | -1.93 |
| RRIRHRPPRLPRPRPRPTLWPRP | 0.246 |
| RRIRTRPPRLPRPRPRPKGTPRP | -0.188 |
| RRIRCRPPRLPRPRPRPMRLPRP | 0.0914 |
| RRIRYRPPRLPRPRPRPSLIPRP | -1.15 |
| RRIRTRPPRLPRPRPRPHIDPRP | -0.0151 |
| RRIRRRPPRLPRPRPRPQSVPRP | -0.0146 |
| RRIRLRPPRLPRPRPRPQGYPRP | -0.141 |
| RRIRRRPPRLPRPRPRPPIFPRP | 0.16 |

| Sequence | shrunken log2 fold change |
| --- | --- |
| RRIRLRPPRLPRPRPRPPADPRP | 0.797 |
| RRIRVRPPRLPRPRPRPAVCPRP | 0.258 |
| RRIRGRPPRLPRPRPRPVAYPRP | 0.0402 |
| RRIRSRPPRLPRPRPRPMWEPRP | 0.0252 |
| RRIRFRPPRLPRPRPRPLMDPRP | -0.0516 |
| RRIRRRPPRLPRPRPRPVYQPRP | -0.384 |
| RRIRCRPPRLPRPRPRPELVPRP | 0.423 |
| RRIRFRPPRLPRPRPRPRCRPRP | 0.109 |
| RRIRWRPPRLPRPRPRPQTSPRP | -0.0118 |
| RRIRDRPPRLPRPRPRPFGRPRP | -0.0125 |
| RRIRHRPPRLPRPRPRPNCRPRP | -0.0986 |
| RRIRHRPPRLPRPRPRPSCSPRP | -0.876 |
| RRIRNRPPRLPRPRPRPNQMPRP | -0.153 |
| RRIRDRPPRLPRPRPRPNYIPRP | -1.03 |
| RRIRARPPRLPRPRPRPGFAPRP | 0.57 |
| RRIRIRPPRLPRPRPRPDLIPRP | -0.217 |
| RRIRMRPPRLPRPRPRPGRVPRP | 0.919 |
| RRIRMRPPRLPRPRPRPTDTPRP | 0.227 |
| RRIRVRPPRLPRPRPRPTWMPRP | 0.0438 |
| RRIRNRPPRLPRPRPRPSYFPRP | -0.699 |
| RRIRRRPPRLPRPRPRPNVIPRP | -0.265 |
| RRIRLRPPRLPRPRPRPMRQPRP | 0.181 |

| Sequence | shrunken log2 fold change |
| --- | --- |
| RRIRFRPPRLPRPRPRPQSWPRP | -0.0287 |
| RRIRERPPRLPRPRPRPFTPPRP | 0.116 |
| RRIRTRPPRLPRPRPRPTENPRP | -0.293 |
| RRIRTRPPRLPRPRPRPIKWPRP | 0.0186 |
| RRIRYRPPRLPRPRPRPGRNPRP | 0.191 |
| RRIRDRPPRLPRPRPRPNGSPRP | -0.0808 |
| RRIRYRPPRLPRPRPRPYGDPRP | -0.525 |
| RRIRVRPPRLPRPRPRPNRYPRP | -0.4 |
| RRIRQRPPRLPRPRPRPYKGPRP | -0.0872 |
| RRIRCRPPRLPRPRPRPHDPPRP | 0.286 |
| RRIRERPPRLPRPRPRPDVEPRP | 0.084 |
| RRIRDRPPRLPRPRPRPYKHPRP | -1.13 |
| RRIRWRPPRLPRPRPRPGAVPRP | 0.745 |
| RRIRTRPPRLPRPRPRPYVLPRP | -0.321 |
| RRIRSRPPRLPRPRPRPSVLPRP | -0.222 |
| RRIRTRPPRLPRPRPRPHLHPRP | -0.844 |
| RRIRRRPPRLPRPRPRPGYEPRP | 0.0872 |
| RRIRVRPPRLPRPRPRPPVRPRP | 0.267 |
| RRIRQRPPRLPRPRPRPKCTPRP | -0.0317 |
| RRIRYRPPRLPRPRPRPPMEPRP | 0.0358 |
| RRIRHRPPRLPRPRPRPLWYPRP | -0.923 |
